Literature values, collected in paper PMC2827930.

Target: RBPjκ (UniProt P31266)
Sequence of UniProt P31266 (P31266 53-474): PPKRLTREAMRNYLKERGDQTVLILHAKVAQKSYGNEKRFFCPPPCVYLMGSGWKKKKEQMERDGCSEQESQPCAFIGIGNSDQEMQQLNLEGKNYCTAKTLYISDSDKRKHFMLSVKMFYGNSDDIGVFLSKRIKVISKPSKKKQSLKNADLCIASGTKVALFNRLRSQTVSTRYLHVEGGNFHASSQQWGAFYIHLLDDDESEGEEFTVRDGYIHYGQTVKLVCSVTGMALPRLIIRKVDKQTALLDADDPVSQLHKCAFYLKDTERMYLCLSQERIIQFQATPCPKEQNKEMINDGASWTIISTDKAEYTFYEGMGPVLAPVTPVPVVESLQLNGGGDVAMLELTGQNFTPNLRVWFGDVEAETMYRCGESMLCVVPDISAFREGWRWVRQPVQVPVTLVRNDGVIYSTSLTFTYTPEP

Notch RAM (from UniProt P46531)
Kd: 0.2 µM
